The supplement of paper PMC9732359
± gives the uncertainty stated by the source.

Assay: protein stability index of a GFP-peptide fusion (yeast GPS) (PSI 1-4); higher = more stable; sorted into four equal gates, so the index is relative within each strain
How it was run: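 The protein stability index of a peptide was calculated by multiplying its read frequency in each gate by that gate's number and adding the products. The peptides were tiled 17-residue stretches of yeast proteins, fused downstream of GFP on a Cherry-expressing plasmid and carried in yeast as a pooled library. Mid-log cultures in leucine-free medium were sorted into four equal gates by GFP/Cherry ratio, and each gate's plasmids were PCR-amplified and Illumina-sequenced.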

## EATQDDDFDMLFGENDT [NUT1]
doa10∆
  protein stability index: 2.92 ± 0.071
pdr5∆
  protein stability index: 3.13 ± 0.06
san1∆
  protein stability index: 3.06 ± 0.065
ubr1∆
  protein stability index: 3.04 ± 0.062

## VDPFTRKEWFDIKAPST [RPS1A]
doa10∆
  protein stability index: 2.38 ± 0.072
pdr5∆
  protein stability index: 2.57 ± 0.067
san1∆
  protein stability index: 2.55 ± 0.045
ubr1∆
  protein stability index: 2.89 ± 0.06

## AELLVLKILKQVMEEKL [PUP2]
doa10∆
  protein stability index: 2.73 ± 0.16
pdr5∆
  protein stability index: 2.75 ± 0.087
san1∆
  protein stability index: 2.69 ± 0.24
ubr1∆
  protein stability index: 2.56 ± 0.24

## DERIEKELNTERQIFLE [CDC53]
doa10∆
  protein stability index: 2.9 ± 0.1
pdr5∆
  protein stability index: 3.09 ± 0.12
san1∆
  protein stability index: 3.13 ± 0.097
ubr1∆
  protein stability index: 3.12 ± 0.086

## KAGKITTIEEIFLHSLP [RPS2]
doa10∆
  protein stability index: 2.8 ± 0.11
pdr5∆
  protein stability index: 2.69 ± 0.12
san1∆
  protein stability index: 2.52 ± 0.082
ubr1∆
  protein stability index: 2.94 ± 0.066

## EERKRWAMQGISYLQEV [PCI8]
doa10∆
  protein stability index: 3.58 ± 0.19
pdr5∆
  protein stability index: 3.15 ± 0.13
san1∆
  protein stability index: 3.12 ± 0.15
ubr1∆
  protein stability index: 3.23 ± 0.11

## GCVDIDDALHAKKLPNG [DIS3]
doa10∆
  protein stability index: 3.26 ± 0.059
pdr5∆
  protein stability index: 3.23 ± 0.051
san1∆
  protein stability index: 3.14 ± 0.04
ubr1∆
  protein stability index: 3.14 ± 0.037

## SKNPLSLTEATKTNVDN [YLR335W/NUP2]
doa10∆
  protein stability index: 3.01 ± 0.065
pdr5∆
  protein stability index: 3.01 ± 0.069
san1∆
  protein stability index: 3.28 ± 0.11
ubr1∆
  protein stability index: 3.31 ± 0.092

## GAFDQLKQNAIRARIPF [SRP54]
doa10∆
  protein stability index: 2.69 ± 0.063
pdr5∆
  protein stability index: 2.89 ± 0.06
san1∆
  protein stability index: 2.9 ± 0.057
ubr1∆
  protein stability index: 3.03 ± 0.07

## ESDYEPNNETSVLSSKP [SIR3]
doa10∆
  protein stability index: 2.99 ± 0.089
pdr5∆
  protein stability index: 3.08 ± 0.11
san1∆
  protein stability index: 3.02 ± 0.11
ubr1∆
  protein stability index: 3.01 ± 0.07

## AVHSIIALSRRFLLNGR [YDL116W/NUP84]
doa10∆
  protein stability index: 2.11 ± 0.086
pdr5∆
  protein stability index: 1.56 ± 0.069
san1∆
  protein stability index: 2.06 ± 0.14
ubr1∆
  protein stability index: 1.99 ± 0.085

## EEEDAKNPLFSYVEPVL [RPL31A]
doa10∆
  protein stability index: 2.88 ± 0.042
pdr5∆
  protein stability index: 2.63 ± 0.036
san1∆
  protein stability index: 2.12 ± 0.047
ubr1∆
  protein stability index: 2.21 ± 0.026

## PQIVKLFDISREALSGR [ECM29]
doa10∆
  protein stability index: 3.44 ± 0.15
pdr5∆
  protein stability index: 3.26 ± 0.1
san1∆
  protein stability index: 3.59 ± 0.081
ubr1∆
  protein stability index: 2.95 ± 0.054

## ANARDFGEWAGMTKSNI [BRR2]
doa10∆
  protein stability index: 2.28 ± 0.12
pdr5∆
  protein stability index: 2.82 ± 0.14
san1∆
  protein stability index: 1.55 ± 0.12
ubr1∆
  protein stability index: 2.37 ± 0.079

## KHIKNLEDDSLLSYPIK [RPN12]
doa10∆
  protein stability index: 2.9 ± 0.047
pdr5∆
  protein stability index: 2.44 ± 0.033
san1∆
  protein stability index: 2.56 ± 0.045
ubr1∆
  protein stability index: 2.617 ± 0.026

## EILNLSTQELQTRAKLL [RPT5]
pdr5∆
  protein stability index: 2.18 ± 0.18
san1∆
  protein stability index: 3.04 ± 0.091
ubr1∆
  protein stability index: 3.08 ± 0.085

## LKNIMKVSDPYVPTRNT [RPN4]
doa10∆
  protein stability index: 3.07 ± 0.15
pdr5∆
  protein stability index: 2.67 ± 0.18
san1∆
  protein stability index: 2.78 ± 0.071
ubr1∆
  protein stability index: 2.59 ± 0.11

## EPFTILGAVAGLIPYPH [RET1]
doa10∆
  protein stability index: 2.17 ± 0.063
pdr5∆
  protein stability index: 2.13 ± 0.051
san1∆
  protein stability index: 2.13 ± 0.078
ubr1∆
  protein stability index: 1.83 ± 0.043

## AMLAAQDVAAKCKEVGI [RPS14B]
doa10∆
  protein stability index: 2.36 ± 0.061
pdr5∆
  protein stability index: 2.36 ± 0.065
san1∆
  protein stability index: 1.99 ± 0.073
ubr1∆
  protein stability index: 1.96 ± 0.044

## VLDIVPGSSITETEVER [SRB4]
doa10∆
  protein stability index: 3.04 ± 0.13
pdr5∆
  protein stability index: 2.88 ± 0.15
san1∆
  protein stability index: 2.57 ± 0.18
ubr1∆
  protein stability index: 2.83 ± 0.12

## NLQKIDKDSEELDSKTR [MED4]
doa10∆
  protein stability index: 2.73 ± 0.091
pdr5∆
  protein stability index: 2.98 ± 0.071
san1∆
  protein stability index: 2.94 ± 0.078
ubr1∆
  protein stability index: 3.09 ± 0.053

## KICSSEMINEQKLPQYI [RGR1]
doa10∆
  protein stability index: 3.02 ± 0.11
pdr5∆
  protein stability index: 2.9 ± 0.13
san1∆
  protein stability index: 3.01 ± 0.15
ubr1∆
  protein stability index: 2.98 ± 0.1

## AVGAHSDLLKVLKSKKL [RPL4A]
doa10∆
  protein stability index: 3.13 ± 0.14
pdr5∆
  protein stability index: 3.14 ± 0.13
san1∆
  protein stability index: 2.61 ± 0.16
ubr1∆
  protein stability index: 2.82 ± 0.062

## DRIYMLFHFEEDEGEEL [PRP8]
doa10∆
  protein stability index: 1.64 ± 0.065
pdr5∆
  protein stability index: 1.49 ± 0.064
san1∆
  protein stability index: 1.5 ± 0.17
ubr1∆
  protein stability index: 1.93 ± 0.057

## TLRTISFKGSPNERKAK [SNF2]
doa10∆
  protein stability index: 3.19 ± 0.17
san1∆
  protein stability index: 2.74 ± 0.15
ubr1∆
  protein stability index: 2.51 ± 0.13

## TGHLFLKIIHTSVWAGQ [PRP8]
doa10∆
  protein stability index: 1.31 ± 0.06
pdr5∆
  protein stability index: 1.31 ± 0.056
san1∆
  protein stability index: 1.19 ± 0.097
ubr1∆
  protein stability index: 1.28 ± 0.051

## NYSSLPSPYKTTVYRYS [YAR002W/NUP60]
doa10∆
  protein stability index: 2.04 ± 0.045
pdr5∆
  protein stability index: 2.27 ± 0.038
san1∆
  protein stability index: 1.71 ± 0.057
ubr1∆
  protein stability index: 1.91 ± 0.034

## RSLCEVLVYDDKLEKVT [RPC34]
doa10∆
  protein stability index: 2.32 ± 0.09
pdr5∆
  protein stability index: 2.62 ± 0.1
san1∆
  protein stability index: 2.33 ± 0.1
ubr1∆
  protein stability index: 2.84 ± 0.093

## VDESLLSTLPAGKSLVS [QCR2]
doa10∆
  protein stability index: 2.65 ± 0.15
pdr5∆
  protein stability index: 2.81 ± 0.22
san1∆
  protein stability index: 1.85 ± 0.26
ubr1∆
  protein stability index: 2.41 ± 0.13

## IKMQRQFSQLNDPNAAV [MED6]
doa10∆
  protein stability index: 3.01 ± 0.07
pdr5∆
  protein stability index: 3.04 ± 0.059
san1∆
  protein stability index: 3.09 ± 0.06
ubr1∆
  protein stability index: 3.16 ± 0.059

## GSYLCTSSTPSPIKNGS [YOR098C/NUP1]
doa10∆
  protein stability index: 2.95 ± 0.054
pdr5∆
  protein stability index: 2.94 ± 0.054
san1∆
  protein stability index: 2.78 ± 0.053
ubr1∆
  protein stability index: 2.97 ± 0.04

## HYKVPTDTSTTATAATN [MED6]
doa10∆
  protein stability index: 2.28 ± 0.054
pdr5∆
  protein stability index: 2.62 ± 0.053
san1∆
  protein stability index: 2.29 ± 0.067
ubr1∆
  protein stability index: 2.61 ± 0.044

## FLQKFEIAFHLTLIFYD [YML103C/NUP188]
doa10∆
  protein stability index: 1.49 ± 0.083
pdr5∆
  protein stability index: 1.46 ± 0.044
san1∆
  protein stability index: 1.41 ± 0.12
ubr1∆
  protein stability index: 1.35 ± 0.052

## GAQIVSKQIFTHPKDTF [ARP9]
doa10∆
  protein stability index: 2.23 ± 0.069
pdr5∆
  protein stability index: 1.51 ± 0.051
san1∆
  protein stability index: 2.04 ± 0.067
ubr1∆
  protein stability index: 1.68 ± 0.033

## LRRTTQRVFDETEQEYS [YDL116W/NUP84]
doa10∆
  protein stability index: 3.21 ± 0.064
pdr5∆
  protein stability index: 3.03 ± 0.046
san1∆
  protein stability index: 3.2 ± 0.061
ubr1∆
  protein stability index: 3.19 ± 0.043

## NIIEKAMDYAISIENIV [RPN12]
doa10∆
  protein stability index: 3.15 ± 0.13
pdr5∆
  protein stability index: 3.29 ± 0.088
san1∆
  protein stability index: 2.96 ± 0.094
ubr1∆
  protein stability index: 3.07 ± 0.071

## NFLSVITNKHQEGLAKF [RPN2]
ubr1∆
  protein stability index: 3.17 ± 0.14

## RRLLNLYNDNNKNNNNR [SWI1]
doa10∆
  protein stability index: 3.11 ± 0.12
pdr5∆
  protein stability index: 2.86 ± 0.089
san1∆
  protein stability index: 2.22 ± 0.16
ubr1∆
  protein stability index: 2.99 ± 0.058

## NLQQQQQQQIQVPLQQT [YGR119C/NUP57]
doa10∆
  protein stability index: 2.56 ± 0.13
pdr5∆
  protein stability index: 2.76 ± 0.078
san1∆
  protein stability index: 2.16 ± 0.18
ubr1∆
  protein stability index: 3.03 ± 0.11

## STDNEAITISNSIDINY [SMC1]
doa10∆
  protein stability index: 2.62 ± 0.053
pdr5∆
  protein stability index: 2.93 ± 0.057
san1∆
  protein stability index: 2.67 ± 0.045
ubr1∆
  protein stability index: 2.88 ± 0.039

## RNNSNNKTSNNNNVTAV [SWI1]
doa10∆
  protein stability index: 2.73 ± 0.05
pdr5∆
  protein stability index: 2.6 ± 0.054
san1∆
  protein stability index: 1.74 ± 0.096
ubr1∆
  protein stability index: 2.81 ± 0.044

## SKVTKKHGAKKVAKRTK [RPL27B]
doa10∆
  protein stability index: 3.42 ± 0.27
pdr5∆
  protein stability index: 3.02 ± 0.2
san1∆
  protein stability index: 3.27 ± 0.2
ubr1∆
  protein stability index: 3.26 ± 0.22

## FQDVYDLTGSEPIKEII [FAS1]
doa10∆
  protein stability index: 2.78 ± 0.25
pdr5∆
  protein stability index: 3.02 ± 0.081
ubr1∆
  protein stability index: 3.22 ± 0.1

## KKIRFLQLIIFLRTQFL [RGR1]
doa10∆
  protein stability index: 1.53 ± 0.057
pdr5∆
  protein stability index: 1.27 ± 0.041
san1∆
  protein stability index: 1.19 ± 0.15
ubr1∆
  protein stability index: 1.21 ± 0.073

## KAGVKESDTGLAPSHLW [RPT1]
doa10∆
  protein stability index: 2.93 ± 0.16
san1∆
  protein stability index: 3.09 ± 0.12

## NNVKQMVMAGSKGSFIN [RPO21]
doa10∆
  protein stability index: 1.57 ± 0.091
pdr5∆
  protein stability index: 1.78 ± 0.095
ubr1∆
  protein stability index: 1.94 ± 0.068

## KKRSQAKMNAKTDFAKI [RPC82]
doa10∆
  protein stability index: 3.42 ± 0.094
pdr5∆
  protein stability index: 3.23 ± 0.12
san1∆
  protein stability index: 3.22 ± 0.076
ubr1∆
  protein stability index: 3.37 ± 0.059

## TTQDQCKLTLDINVELF [RPB8]
doa10∆
  protein stability index: 2.97 ± 0.054
pdr5∆
  protein stability index: 2.96 ± 0.07
san1∆
  protein stability index: 2.93 ± 0.037
ubr1∆
  protein stability index: 3.3 ± 0.053

## AGSAALKIIHDTFRWVG [RPO31]
doa10∆
  protein stability index: 3.23 ± 0.093
pdr5∆
  protein stability index: 2.85 ± 0.12
san1∆
  protein stability index: 1.19 ± 0.17
ubr1∆
  protein stability index: 3.24 ± 0.063

## SCTKCPQIVVPDAQNEL [DIS3]
doa10∆
  protein stability index: 2.17 ± 0.05
pdr5∆
  protein stability index: 2.42 ± 0.04
san1∆
  protein stability index: 2.48 ± 0.057
ubr1∆
  protein stability index: 2.34 ± 0.059

## KLYVSHIQVNQAPKQRR [RPL17A]
doa10∆
  protein stability index: 1.89 ± 0.079
pdr5∆
  protein stability index: 1.92 ± 0.068
san1∆
  protein stability index: 2.02 ± 0.14
ubr1∆
  protein stability index: 2.08 ± 0.11

## ESLPQYVDFVPMYKELW [POP4]
doa10∆
  protein stability index: 2.12 ± 0.061
pdr5∆
  protein stability index: 2.45 ± 0.056
san1∆
  protein stability index: 2.5 ± 0.074
ubr1∆
  protein stability index: 2.64 ± 0.048

## YQNMAFITAKDKYKLYP [YJR042W/NUP85]
doa10∆
  protein stability index: 2.9 ± 0.063
pdr5∆
  protein stability index: 3.06 ± 0.11
san1∆
  protein stability index: 3.16 ± 0.076
ubr1∆
  protein stability index: 2.88 ± 0.077
